According to patent US20190389958A1 (MSM PROTEIN TECHNOLOGIES, published 2019):

Assays:
human CXCR4 [1] = target: T1, human CXCR4 (human, UniProt P61073 1-352); experiment: cell-based or functional assay
human CXCR4 [2] = target: T1, human CXCR4; experiment: flow cytometry, IgG 10 µg/mL, CXCR4-expressing Ramos (RA1) cells
Experimental: Binding of test IgGs to CXCR4-expressing human lymphoma cells (Ramos; RA1, ATCC® CRL-1596™) was measured by fluorescent flow cytometry-based assay. Tumor cell staining was conducted as follows: human Fcγ receptors of RA1 cells were saturated by incubation at 4° C. for 30 minutes in PBS containing 2% human serum and 0.5 mM EDTA. Cells were then incubated at 4° C. for one hour with test IgGs or a human isotypic IgG1 kappa control (Coger Sarl, Paris, France) (both antibody types at 10 μg/mL). The cells were washed with PBS and further incubated for one hour at 4° C. with a goat F(ab′)2 fragment anti-human IgG (H+L)-PE (Beckman Coulter). The cells were washed twice with PBS and fixed with 0.5% formaldehyde in PBS for analysis by flow cytometry. The data were acquired using an eleven-color flow cytometer (LSRII, BD Biosciences), and the analyses were performed with the FlowJo flow cytometry analysis software (Tree Star Inc., Ashland, Oreg.). The living cells were selected using the side scatter (SSC) and the forward scatter (FSC); 10,000 events were acquired for each analysis. MFI values were recorded using the PE channel.

human CXCR4 [3] = target: T1, human CXCR4; experiment: flow cytometry on Cf2-Th cells transfected with human CXCR4, IgG1 format
Experimental: A typical protocol for the fluorescent flow cytometry-based assay was as follows. Ten microliter of a purified test IgG solution or buffer as a control were added to 10 microliter of a suspension containing approximately 30,000 Cf2-Th cells transfected to express human CXCR4. After incubation on ice for 40 min, cells were washed with FACS buffer (phosphate-buffered saline (PBS), pH7.4; 2% fetal calf serum, 0.1% sodium azide) to remove unbound antibodies. Ten microliter of a solution of phycoerythrin (PE)-conjugated mouse anti-human Fc monoclonal antibody (1/20 dilution; catalog number 12-4998-82, eBioscience Inc., San Diego, Calif.) were then added to the cells, and, after a 30-min incubation on ice, cells were washed twice and then formalin-fixed (FIX buffer: PBS, pH7.4; 0.5% formaldehyde). Fixed samples were analysed by fluorescent flow cytometry using a Guava-PCA96 instrument (EMD Millipore Chemicals, Merck KGaA, Darmstadt, Germany).

human CXCR4 [4] = target: T1, human CXCR4; experiment: cell-based or functional assay; remark: listed apart in the source

T1 sequence (P61073 whole entry): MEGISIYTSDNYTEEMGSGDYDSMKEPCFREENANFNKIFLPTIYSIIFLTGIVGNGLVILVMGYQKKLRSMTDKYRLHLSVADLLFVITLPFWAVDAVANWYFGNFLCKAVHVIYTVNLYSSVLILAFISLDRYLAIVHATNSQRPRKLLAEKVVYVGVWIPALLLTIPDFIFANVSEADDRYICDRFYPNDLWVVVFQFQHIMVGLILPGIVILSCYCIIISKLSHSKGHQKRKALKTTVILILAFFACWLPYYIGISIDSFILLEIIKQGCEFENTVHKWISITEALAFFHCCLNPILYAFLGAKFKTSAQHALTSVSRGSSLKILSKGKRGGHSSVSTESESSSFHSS

% Inhibition of SDF-1alpha-induced chemotaxis of U937 cells (IgG at 100 nM) (human CXCR4 [1]): 77%
MFI (human CXCR4 [2]): 488
EC50 (human CXCR4 [3]): < 10 nM
IC50 (nM), inhibition of SDF-1alpha-induced calcium flux (human CXCR4 [4]): 3.8 nM
B1: V62.1-R108H-m43-m38 (antibody, human IgG1, V domains shown)
VH: EVQLLESGGGLVQPGGSLRLSCAASGFTFSSYAMSWVRQAPGKGLEWVSAISGSGGGSTRYADSVKGRFTISRDNSKNTLYLQMNSLRAEDTAVYYCARQGKTRVYGYHWHGYGSTHALDYWGQGTLVTVSS
VL: EIVLTQSPGTLSLSPGERATLSCRASQSVSSSYLAWYQQKPGQAPRLLIYGASSRATGIPDRFSGSGSGTDFTLTISRLEPEDFAVYYCQQWSSDSVTFGQGTKVEIKR
notes: Tested as an IgG (human IgG1 format); also called V62.1-H-m43-m38; IgG1 62.1-R108H-m43-m38
